Positions count from the first letter of the chain named.
B1: SEQ ID NO 111 (Fab, V domains shown)
VH: EVQLTESGGGLVQPGGSLRLSCRASGFIFSNHYMNWVRQAPGKGLEWIGEIRSKSINSATHYAESVKGRFIISRDDNGNSLYLEMNSLKTEDTAEYYCARNYYGSTPDYWGQGTLVTVS
VL: EIVLTQSPDFQSVTPKEKVTITCRASQFVGSSIHWYQQKPDQSPKLLIKYASESMSGVPSRFSGSGSGTDFTFTISSLEAEDAATYYCQQSHSWPFTFGPGTKVDIK
notes: Fab, E. coli lysate
B2: SEQ ID NO 158 (Fab, V domains shown)
VH: B1 VH with T5V, G26Q, Y33W, N57Y, S58G, G78K, S80D
VL: B1 VL
notes: Fab, E. coli lysate
B3: SEQ ID NO 156 (Fab, V domains shown)
VH: B1 VH with R23A, G26Q, F27S, I28T, Y33W, H61S, G78K, S80D, Y82T, P107Y
VL: B1 VL
notes: Fab, E. coli lysate
B4: SEQ ID NO 134 (Fab, V domains shown)
VH: B1 VH with R23A, F27S, Y33W, S58G, D76G, N79T
VL: B1 VL
notes: Fab, E. coli lysate
B5: SEQ ID NO 136 (Fab, V domains shown)
VH: B1 VH with R23A, G26Q, F27S, Y33W, N57Y, N79T, R100Q
VL: B1 VL
notes: Fab, E. coli lysate
B6: SEQ ID NO 124 (Fab, V domains shown)
VH: B1 VH with T5V, R23A, G26Q, F27S, I28T, I56S, D76G, G78K, S80D
VL: B1 VL
notes: Fab, E. coli lysate
B7: SEQ ID NO 126 (Fab, V domains shown)
VH: B1 VH with T5V, F27S, I28T, N57Y, D76G, G78K, R100Q, P107Y
VL: B1 VL
notes: Fab, E. coli lysate
B8: SEQ ID NO 141 (Fab, V domains shown)
VH: EVQLVESGGGLVQPGGSLRLSCAASGSTFSNHWMNWVRQAPGKGLEWIGEIRSKSIYGATSYAESVKGRFIISRDGNKNSLYLEMNSLKTEDTAEYYCARNYYGSTYDYWGQGTLVTVS
VL: B1 VL
notes: Fab, E. coli lysate
B9: SEQ ID NO 130 (Fab, V domains shown)
VH: B1 VH with T5V, N57Y, R100Q, P107Y
VL: B1 VL
notes: Fab, E. coli lysate
B10: SEQ ID NO 131 (Fab, V domains shown)
VH: B1 VH with R23A, G26Q, I28T, I56S, H61S, D76G, N79T, Y82T, R100Q, P107Y
VL: B1 VL
notes: Fab, E. coli lysate
B11: SEQ ID NO 151 (Fab, V domains shown)
VH: B1 VH with T5V, R23A, G26Q, N57Y, S58G, D76G, Y82T
VL: B1 VL
notes: Fab, E. coli lysate
B12: SEQ ID NO 145 (Fab, V domains shown)
VH: B1 VH with G26Q, F27S, I28T, I56S, S58G, H61S, S80D, R100Q, P107Y
VL: B1 VL
notes: Fab, E. coli lysate
B13: SEQ ID NO 135 (Fab, V domains shown)
VH: B8 VH with G26Q, T28I, I56S, Y57N, G58S, N79T, S80D, R100Q
VL: B1 VL
notes: Fab, E. coli lysate
B14: SEQ ID NO 137 (Fab, V domains shown)
VH: B8 VH with W33Y, I56S, G58S, K78G, N79T, S80D, Y82T, R100Q
VL: B1 VL
notes: Fab, E. coli lysate
B15: SEQ ID NO 138 (Fab, V domains shown)
VH: B1 VH with I56S, H61S, D76G, G78K, S80D
VL: B1 VL
notes: Fab, E. coli lysate
B16: SEQ ID NO 144 (Fab, V domains shown)
VH: B8 VH with A23R, T28I, W33Y, I56S, Y57N, G58S, S80D, R100Q
VL: B1 VL
notes: Fab, E. coli lysate
B17: SEQ ID NO 149 (Fab, V domains shown)
VH: B1 VH with G26Q, I56S, N57Y, R100Q, P107Y
VL: B1 VL
notes: Fab, E. coli lysate
B18: SEQ ID NO 155 (Fab, V domains shown)
VH: B8 VH with V5T, G26Q, I56S, G58S, G76D
VL: B1 VL
notes: Fab, E. coli lysate
B19: SEQ ID NO 123 (Fab, V domains shown)
VH: B1 VH with G26Q, I28T, I56S, N57Y, S58G, H61S, S80D, P107Y
VL: B1 VL
notes: Fab, E. coli lysate
B20: SEQ ID NO 146 (Fab, V domains shown)
VH: B8 VH with S27F, T28I, Y57N, S61H, S80D, Y82T, Y107P
VL: B1 VL
notes: Fab, E. coli lysate
B21: SEQ ID NO 132 (Fab, V domains shown)
VH: B8 VH with G26Q, T28I, W33Y, G76D, Y82T, Y107P
VL: B1 VL
notes: Fab, E. coli lysate
B22: SEQ ID NO 150 (Fab, V domains shown)
VH: B8 VH with G26Q, S27F, W33Y, Y57N, G76D, K78G, N79T, S80D
VL: B1 VL
notes: Fab, E. coli lysate
B23: SEQ ID NO 115 (Fab, V domains shown)
VH: B1 VH with T5V, F27S, D76G, N79T, R100Q, P107Y
VL: B1 VL
notes: Fab, E. coli lysate
B24: SEQ ID NO 127 (Fab, V domains shown)
VH: B1 VH with R23A, G26Q, Y33W, I56S, N57Y, S58G, H61S, Y82T
VL: B1 VL
notes: Fab, E. coli lysate
B25: SEQ ID NO 112 (Fab, V domains shown)
VH: B1 VH with T5V, I28T, Y33W, N57Y, G78K, N79T, S80D
VL: B1 VL
notes: Fab, E. coli lysate
B26: SEQ ID NO 140 (Fab, V domains shown)
VH: B1 VH with R23A, F27S, I28T, I56S, N79T, P107Y
VL: B1 VL
notes: Fab, E. coli lysate
B27: SEQ ID NO 117 (Fab, V domains shown)
VH: B1 VH with R23A, G26Q, I28T, Y33W, I56S, D76G, G78K, N79T, Y82T
VL: B1 VL
notes: Fab, E. coli lysate
B28: SEQ ID NO 157 (Fab, V domains shown)
VH: B1 VH with F27S, Y33W, N57Y, H61S, N79T, Y82T, R100Q
VL: B1 VL
notes: Fab, E. coli lysate
B29: SEQ ID NO 148 (Fab, V domains shown)
VH: B8 VH with A23R, G26Q, S27F, T28I, W33Y, K78G, S80D, R100Q
VL: B1 VL
notes: Fab, E. coli lysate
B30: SEQ ID NO 118 (Fab, V domains shown)
VH: B8 VH with G26Q, S27F, Y57N, G58S, G76D, Y107P
VL: B1 VL
notes: Fab, E. coli lysate

biological target: T1, human tumor necrosis factor-α (rHuTNF-alpha, Biosource) (human, UniProt P01375 77-233); assay: solid-phase ELISA, Fab lysate on coated rHuTNF-alpha
T1 construct: Bought recombinant protein coated on ELISA plates; The TNFα of the Biacore assay is not described further; also called TNFα; human TNFα
Method in brief: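 E. coli lysates expressing His-tagged Fab (pTrcHis2A) were incubated 2 h at RT on wells coated with 1 μg/ml rHuTNF-α and blocked with BSA. Bound Fab was detected with biotinylated anti-human kappa plus penta-His conjugates, then streptavidin-POD and TMB. Absorbance was read at 450 nm.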

T1 sequence (P01375 77-233 limits assumed): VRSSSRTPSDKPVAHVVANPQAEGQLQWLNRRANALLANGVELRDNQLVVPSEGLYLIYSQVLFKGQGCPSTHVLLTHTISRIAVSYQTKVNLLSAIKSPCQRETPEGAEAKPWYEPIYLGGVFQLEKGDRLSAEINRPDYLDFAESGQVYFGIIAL

| Binder | binding result |
| --- | --- |
| B1 | binds |
| B2 | binds |
| B3 | binds |
| B4 | binds |
| B5 | binds |
| B6 | binds |
| B7 | binds |
| B8 | binds |
| B9 | binds |
| B10 | binds |
| B11 | binds |
| B12 | binds |
| B13 | binds |
| B14 | binds |
| B15 | binds |
| B16 | binds |
| B17 | binds |
| B18 | binds |
| B19 | binds |
| B20 | binds |
| B21 | binds |
| B22 | binds |
| B23 | binds |
| B24 | binds |
| B25 | binds |
| B26 | binds |
| B27 | binds |
| B28 | binds |
| B29 | binds |
| B30 | binds |

From patent US20070092518A1 (published 2007)
